Test results taken from patent US6645501B2, “Anti-pathogen system and methods of use thereof” (Washington University, priority 1997, dated 2003).
“Also recorded” adds a separate entry of the source.

Columns and labels:
[1] = test system: Jurkat T cells; test: FACS and confocal analysis of FITC-labeled TAT fusion proteins added to Jurkat T cells; assay type: cell-based; settings: FITC-labeled protein added to media of Jurkat T cells
Procedure: To test the ability of TAT-Casp3 proteins to transduce into cells, TAT-Casp3 proteins were conjugated to fluorescein (FITC), then added directly to the media of Jurkat T cells and analyzed by Flow Cytometry (FACS) (FIGS. 9B-C). Both TAT-Casp3WT and TAT-Casp3MUT proteins rancidly transduced into ˜100% of cells, achieving maximum intracellular concentration in less than 20 min. In addition, based on the narrow peak width before and after addition of FITC labeled proteins, individual cells within the population contain near identical intracellular concentrations of TAT-Casp3-FITC protein. […] Thus, TAT-Casp3 proteins readily transduce into 100% of all cells inca rapid and concentration-dependent fashion.
The generation and transduction of TAT fusion proteins shown in FIGS. 9A-E are explained in more detail as follows: FIG. 9A. Diagram depicting HIV cleavage site sequences and domains of TAT fusion proteins. FIGS. 9B-D. FACS kinetic analysis of fluorescein (FITC) labeled TAT-Casp3WT, TAT-Casp3MUT and TAT-HIV Pr proteins added to cells at 0, 20 and 30 min. FIG. 9E. FACS dose analysis of 3, 6, and 12 nM TAT-Casp3WT-FITC protein added to cells at I hr post-addition. Note rapid, concentration-dependent transduction of all FITC labeled protein into ˜100% of cells and near identical intracellular concentration within the population as measured by FACS peak width of control vs. transduced cells.
(§1) 1. […] See Lissy, N. A., et al. (supra). […] See Ezhevsky, S. A., et al. (supra). […] See Xiang, J., et al., (supra). […] See Xiang, J., et al., (supra). […] See Ezhevsky, S. A., et al. (supra).

[2] = test system: Jurkat T cells; test: Cytotoxicity of TAT-Casp3 on uninfected Jurkat T cells, viability by Trypan Blue exclusion; settings: 100 nM TAT-Casp3 or 50 nM TAT-HIV Pr, uninfected Jurkat T cells, 16 hr
Procedure: In addition, the ability of TAT-Casp3 protein to induce apoptosis in cells co-transduced with TAT-HIV Pr protein was tested. Jurkat T cells were treated with 100 nM TAT-Casp3WT or TATCasp3MUT proteins alone or in combination with 50 nM TAT-HIV Pr protein and assayed for cell viability 16 hr post-treatment (FIG. 11A). […] See Salvensen, G. S., et al., Henkart, P. A., Cohen, G. M., Woo, M., et al., Enari, M. et al., Liu, X., et al. (supra).
FIG. 11A Cultures of Jurkat T cells were transduced with combinations of TAT-Casp3WT (WT), TAT-Casp3MUT (MUT) and TAT-HIV Protease (Pr) proteins for 16 hr and analyzed for cell viability. […] FIG. 11B Cultures of Jurkat T cells were co-transduced with TAT-Casp3WT (WT), TAT-Casp3MUT (MUT) proteins in combination with TAT-HIV Pr (Pr) protein and analyzed for kinetics of cell viability as indicated.
1. Cell culture-p16(−) Jurkat T cells (ATCC) were grown as described. See Lissy, N. A., et al. (supra). For in vivo substrate cleavage, 1×10^6 cells were transduced with 100 nM TAT-p16, TAT-A-p16, TAT-Casp3MUT and/or 50 nM TAT-HIV Pr proteins for 1, 5 or 8 hr as indicated and analyzed by anti-p16 (Santa Cruz) or anti-Casp3 (Pharmingen) immunoblot analysis. See Ezhevsky, S. A., et al. (supra). For cytotoxicity of TAT-Casp3 on uninfected cells, 1×10^6 cells were transduced with 100 nM TAT-Casp3WT, TAT-Casp3MUT and/or 50 nM TAT-HIV Pr proteins for 16 hr and assayed for viability by Trypan Blue exclusion and/or genomic DNA damage by TUNEL assay (Trevigen). Number of TUNEL positive cells reported as per high-powered microscopic field with four fields per experiment averaged. TAT-Casp3 activity was measured by incubation of 20 μg of whole cell lysate with 50 μM DEVD-AFC and fluorescent AFC formation measured on a FL500 microplate fluorescence reader (Bio-Tek) as described. See Xiang, J., et al., (supra). Cells were preincubated with 1 μg/ml Ritonavir (Abbott Labs) for 1 hr prior to transduction. For cytotoxicity of TAT-Casp3 on infected cells, Jurkat cultures were infected with 100 ng p24 Ag equivalent NLHX HIV-I strain for 7-14 days, assayed microscopically for cytopathic effects, then replated at 1×10^6/ml and transduced with 100 nM of TAT-Casp3WT or TAT-Casp3MUT proteins for 16 hr followed by exclusionary dye viability analysis. Infected cells were pretreated with 1 μg/ml Ritonavir for 24 hr prior to transduction with TAT-Casp3WT protein. See Xiang, J., et al., (supra). For Flow Cytometry (FACS) analysis, fluorescein (FITC) conjugated TAT fusion proteins were added to Jurkat T cell culture media and 1×10^4 cells were analyzed by FACS as described. See Ezhevsky, S. A., et al. (supra).

[3] = test system: Jurkat T cells; test: TUNEL assay for degraded genomic DNA in transduced Jurkat T cells; assay type: cell-based; settings: for TUNEL positive cells, protein transduced alone: 100 nM TAT-Casp3 or 50 nM TAT-HIV Pr
Procedure: (§2) Additionally, transduced cultures were tested for degraded genomic DNA by TUNEL assay. See Coates, P. J., Molecular methods for the identification of apoptosis in tissues. J. Histotechnology 17: 261 (1994). […] Activation of TAT-Casp3 was also assayed by its ability to cleave an artificial Caspase-3 substrate. […] See Xiang, J., et al., Bax-induced cell death may not require interleukin 1B-converting enzyme-like proteases. Proc. Natl. Acad. Sci. USA 93: 14550 (1996).
(§3) The HIV Protease activates TAT-Casp3WT protein shown in FIGS. 12A-B are explained in more detail as follows. FIG. 12A. […] Abscissa: TUNEL positive cells per high-powered microscopic field; Ctrl, control addition of PBS to cultures; error bars represent SD. FIG. 12B. […] Ctrl, control PBS addition; ocFAS crosslinking, positive control.
as §1

[4] = test system: caspase-3 activity (DEVD-AFC cleavage); test: Caspase-3 enzyme assay, cleavage of DEVD-AFC by whole cell lysate of transduced Jurkat T cells; assay type: cell-based; settings: 6 hr
Procedure: as §2, §3, §1

[5] = target: T1, HIV Protease (Human immunodeficiency virus type 1 group M subtype B, UniProt P04585); test: In vivo substrate cleavage by co-transduced TAT-HIV Pr in Jurkat T cells, immunoblot; assay type: cell-based; settings: 100 nM substrate, 50 nM TAT-HIV Pr, Jurkat T cells, immunoblot
T1 construct: PCR cloning the HIV Protease gene from HXB2R HIV strain; 6xHis (from the pTAT vector) (N); made in house; the purified protein was added to Jurkat T cells
Procedure: To assay for in vivo cleavage, p 16(−) Jurkat T cells were transduced with 100 nM TAT-Ap16 or control TAT-p16 protein (no HIV cleavage site) alone or in combination with 50 nM TATHIV Pr fusion protein for 5 hr and analyzed by anti-p16 immunoblot for in vivo cleavage at the HIV A proteolytic cleavage site (FIG. 10A). […] Size analysis of the cleaved TAT-A-p 16 protein was consistent with retention of the residual HIV half site present on the N′ terminus of p 16 (FIG. 10A, see lane 4 vs. 5).
Further, the TAT-Casp3MUT protein was transduced in combination with TAT-HIV Pr protein into cells (FIG. 10B).
The in vivo processing in co-transduced cells shown in FIGS. 10A and 10B is explained in more detail as follows. FIG. 10A. Cultures of p16(−) Jurkat T cells were transduced with TAT-p 16 or TAT-A-p 16 substrate proteins in combination with TATHIV Pr proteins for 5 hr and subjected to anti-p 16 immunoblot analysis. […] WCE, HepG2 whole cell lysate containing wild type endogenous p16; A-p16, cleaved TAT-A-16 product retaining the HIV half site on p16. FIG. 10B. Cultures of Jurkat T cells were transduced with TATCasp3MUT protein (TAT-“D” site-p 17 domain-“A” site-p12 domain) alone or in combination with TAT-HIV Pr (Pr) protein as indicated and immunoblotted with anti-Caspase-3 antibodies specific for the p17 domain. TAT-D-p17-A, cleaved product of TAT-Casp3 containing the N′ terminal HIV A half site.
as §1

[6] = test system: Jurkat T cells infected with the NLHX strain of HIV-I; test: Cytotoxicity of TAT-Casp3 on HIV infected Jurkat cultures, exclusionary dye viability analysis; assay type: cell-based; settings: 100 nM, 16 hr, cultures approximately 50% HIV positive
Source text: To make this determination, Jurkat T cells were infected for 7-14 days with the NLHX strain of HIV-I and examined microscopically for HIV cytopathic effects. See Westervelt, P., et al., Identification of a determinant within the HIV-1 surface envelope glycoprotein critical for productive infection of cultured primary monocytes. Proc. Natl. Acad. Sci USA 88: 3097 (1991). At the start of each transduction experiment approximately 50% of the culture was HIV positive. HIV infected cultures were transduced for 16 hr with 100 nM TAT-Casp3WT or TATCasp3MUT protein and then assayed for cell viability (FIG. 13). […] In addition, we detected both the appearance of cells containing <2N DNA content and cells with condensed nuclei in TAT-Casp3 treated cells.
To determine if TAT-Casp3WT induced apoptosis was dependent on active HIV Protease in the infected cultures, HIV infected cultures were pretreated with 1 μg/ml Ritonavir prior to transduction with 100 nM TAT-Casp3WT protein (FIG. 5). […] In addition, the observed increased survival of Ritonavir treated cells is consistent with increased longevity of protease inhibitor treated HIV infected cells. See Coffin, J. M., et al. (supra).
The specific killing of HIV infected cells shown in FIG. 5 is explained in more detail as follows. Jurkat T cells were infected for 7-14 days with HIV strain NLHX, then transduced with TAT-Casp3WT (WT) or TAT-Casp3MUT (MUT) proteins for 16 hr and assayed for cell viability. […] Ctrl, control addition of PBS to cultures; abscissa, % viability of HIV positive cells in the population at start of transduction; error bars represent SD.
as §1

Molecule: TAT-HIV Pr: transducible HIV Protease, gene from HXB2R HIV strain cloned into pTAT
- cells transduced [1]: 100%
- cytotoxicity when transduced alone [2]: absence
- TUNEL positive cells, protein transduced alone [3]: only background levels; also recorded: remained at background levels
- caspase activity, protein transduced alone [4]: only background levels

B1: TAT-Casp3MUT: catalytically inactive TAT-Casp3 with Met substituted for the active site Cys163 residue (protein)
chain: GRKKRRQRRRGYPYDVPDYACTERQANFLGKIWPGISLDNSYKMDYPEMGLCIIINNKNFHKSTGMTSRSGTDVDAANLRETFRNLKYEVRNKNDLTREEIVELMRDVSKEDHSKRSSFVCVLLSHGEEGIIFGTNGPVDLKKITNFFRGDRCRSLTGKPKLFIIQAMRGTELDCGIETSQVSQNYPIVQNLQGVDDDMACHKIPVEADFLYAYSTAPGYYSWRNSKDGSWFIQSLCAMLKQYADKLEFMHILTRVNRKVATEFESFSFDATFHAKKQIPCIVSMLTKELYFYH
modifications: left off: small tags and cut ends
- cells transduced [1]: ~100%
- cleavage at the HIV cleavage site when co-transduced with TAT-HIV Pr [5]: specific cleavage
- TUNEL positive cells, protein transduced alone [3]: only background levels; also recorded: remained at background levels
- TUNEL positive cells, co-transduced with TAT-HIV Pr ([3]; 100 nM plus 50 nM TAT-HIV Pr): only background; also recorded: remained at background levels
- caspase activity, protein transduced alone [4]: only background levels
- effect on viability of HIV positive cells [6]: no effect
- effect on viability of HIV positive cells ([6]; listed as TATCasp3MUT): negligible effects
